What was measured:
Experiment in all cases: Kinase Profiling Assay
Format in all cases: biochemical
BTK(R28H)(h) = BTK(R28H)(h) (Homo sapiens, UniProt Q06187, R28H)
DMPK(h) = target: T1, DMPK(h) (Homo sapiens, UniProt Q09013); conditions: for % activity: 100 μM
T1 sequence (Q09013 1-629): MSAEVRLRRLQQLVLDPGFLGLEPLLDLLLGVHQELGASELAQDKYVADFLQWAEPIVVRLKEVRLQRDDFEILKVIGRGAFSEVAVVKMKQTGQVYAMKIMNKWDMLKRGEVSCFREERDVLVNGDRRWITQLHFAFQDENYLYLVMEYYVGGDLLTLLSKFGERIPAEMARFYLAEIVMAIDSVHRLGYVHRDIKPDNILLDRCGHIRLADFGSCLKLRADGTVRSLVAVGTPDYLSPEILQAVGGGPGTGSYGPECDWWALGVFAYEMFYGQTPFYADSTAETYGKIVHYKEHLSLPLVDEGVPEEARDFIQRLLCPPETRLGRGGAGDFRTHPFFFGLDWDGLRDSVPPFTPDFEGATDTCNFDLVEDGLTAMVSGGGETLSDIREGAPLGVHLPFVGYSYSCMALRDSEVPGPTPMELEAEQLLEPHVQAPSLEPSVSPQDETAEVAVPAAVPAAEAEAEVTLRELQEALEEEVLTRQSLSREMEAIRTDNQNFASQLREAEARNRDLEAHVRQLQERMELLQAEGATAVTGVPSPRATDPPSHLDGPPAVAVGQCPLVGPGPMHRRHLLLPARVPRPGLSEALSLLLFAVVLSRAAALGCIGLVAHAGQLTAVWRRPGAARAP

FGFR3(h) = FGFR3(h) (Homo sapiens, UniProt P22607); conditions: for % activity: 100 μM
Chain of FGFR3(h) (P22607 23-806): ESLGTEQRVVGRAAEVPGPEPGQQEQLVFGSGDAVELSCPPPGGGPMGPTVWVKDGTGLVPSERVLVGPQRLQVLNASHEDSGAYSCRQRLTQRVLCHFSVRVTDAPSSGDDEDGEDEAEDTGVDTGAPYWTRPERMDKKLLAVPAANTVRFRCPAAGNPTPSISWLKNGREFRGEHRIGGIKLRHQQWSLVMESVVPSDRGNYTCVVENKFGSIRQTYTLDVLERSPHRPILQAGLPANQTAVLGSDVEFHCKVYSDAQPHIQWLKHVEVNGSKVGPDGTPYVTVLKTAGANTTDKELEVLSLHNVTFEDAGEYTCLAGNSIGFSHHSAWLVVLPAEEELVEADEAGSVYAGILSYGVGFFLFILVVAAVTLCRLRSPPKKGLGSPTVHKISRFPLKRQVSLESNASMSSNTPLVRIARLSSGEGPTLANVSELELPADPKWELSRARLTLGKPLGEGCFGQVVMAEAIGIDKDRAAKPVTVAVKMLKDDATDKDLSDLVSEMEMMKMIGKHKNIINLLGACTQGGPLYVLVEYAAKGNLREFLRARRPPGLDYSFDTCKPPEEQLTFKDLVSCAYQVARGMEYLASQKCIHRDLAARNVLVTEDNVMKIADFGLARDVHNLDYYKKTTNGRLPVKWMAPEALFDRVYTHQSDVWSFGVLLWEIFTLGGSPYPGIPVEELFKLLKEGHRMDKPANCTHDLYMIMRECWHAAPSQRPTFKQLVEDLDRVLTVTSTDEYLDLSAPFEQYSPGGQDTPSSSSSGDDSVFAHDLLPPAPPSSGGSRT

Flt4(h) = Flt4(h) (Homo sapiens, UniProt P35916)
Chain of Flt4(h) (P35916 25-1363): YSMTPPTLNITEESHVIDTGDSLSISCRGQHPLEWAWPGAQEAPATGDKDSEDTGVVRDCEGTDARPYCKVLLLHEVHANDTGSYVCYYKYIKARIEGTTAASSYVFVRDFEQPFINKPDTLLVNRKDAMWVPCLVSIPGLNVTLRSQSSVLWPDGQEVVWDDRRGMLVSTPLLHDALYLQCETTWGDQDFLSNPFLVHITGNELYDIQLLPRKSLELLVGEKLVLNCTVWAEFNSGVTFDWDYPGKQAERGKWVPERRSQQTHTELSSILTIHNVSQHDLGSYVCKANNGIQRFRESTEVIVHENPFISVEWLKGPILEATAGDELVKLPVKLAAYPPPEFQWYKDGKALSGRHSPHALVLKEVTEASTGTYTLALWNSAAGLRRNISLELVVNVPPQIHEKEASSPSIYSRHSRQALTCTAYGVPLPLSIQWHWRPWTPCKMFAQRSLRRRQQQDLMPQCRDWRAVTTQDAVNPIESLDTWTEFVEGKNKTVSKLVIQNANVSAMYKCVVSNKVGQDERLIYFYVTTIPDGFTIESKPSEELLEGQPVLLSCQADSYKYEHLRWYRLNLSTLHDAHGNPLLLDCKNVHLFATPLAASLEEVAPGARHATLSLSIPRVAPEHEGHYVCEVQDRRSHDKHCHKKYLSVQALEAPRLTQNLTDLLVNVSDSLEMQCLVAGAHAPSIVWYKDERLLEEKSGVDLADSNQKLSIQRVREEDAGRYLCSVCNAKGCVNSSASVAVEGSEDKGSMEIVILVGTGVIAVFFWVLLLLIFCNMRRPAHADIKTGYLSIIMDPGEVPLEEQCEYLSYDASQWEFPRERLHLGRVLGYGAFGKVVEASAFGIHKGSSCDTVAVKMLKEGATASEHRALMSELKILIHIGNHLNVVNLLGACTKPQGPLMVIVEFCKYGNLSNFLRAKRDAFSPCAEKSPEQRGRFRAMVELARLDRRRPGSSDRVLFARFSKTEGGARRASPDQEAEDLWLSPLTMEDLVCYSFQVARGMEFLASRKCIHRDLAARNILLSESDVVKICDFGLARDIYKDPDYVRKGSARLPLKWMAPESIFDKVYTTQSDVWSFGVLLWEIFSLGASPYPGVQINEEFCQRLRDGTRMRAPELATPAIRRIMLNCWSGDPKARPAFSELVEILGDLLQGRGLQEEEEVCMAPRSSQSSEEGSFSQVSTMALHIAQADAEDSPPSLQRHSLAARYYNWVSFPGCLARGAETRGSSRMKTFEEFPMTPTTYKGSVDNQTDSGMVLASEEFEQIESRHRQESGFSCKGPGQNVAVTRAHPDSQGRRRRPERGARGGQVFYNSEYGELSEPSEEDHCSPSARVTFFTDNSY

IR(h), activated = IR(h), activated (Homo sapiens, UniProt P06213)
MAPKAP-K3(h) = MAPKAP-K3(h) (Homo sapiens, UniProt Q16644); conditions: for % activity: 100 μM
Chain of MAPKAP-K3(h) (Q16644 whole entry): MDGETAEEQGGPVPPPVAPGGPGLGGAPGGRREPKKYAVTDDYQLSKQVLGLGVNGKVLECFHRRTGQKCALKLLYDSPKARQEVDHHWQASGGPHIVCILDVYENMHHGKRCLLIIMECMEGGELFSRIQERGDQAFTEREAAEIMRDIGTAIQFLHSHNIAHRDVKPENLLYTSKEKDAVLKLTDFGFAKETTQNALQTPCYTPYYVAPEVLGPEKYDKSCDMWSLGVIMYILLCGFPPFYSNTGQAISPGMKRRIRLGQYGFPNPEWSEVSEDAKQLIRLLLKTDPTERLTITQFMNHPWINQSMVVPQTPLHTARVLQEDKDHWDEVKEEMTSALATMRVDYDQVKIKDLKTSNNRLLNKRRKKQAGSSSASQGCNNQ

PKCτ(h) = target: T2, PKCτ(h) (Homo sapiens, UniProt P41743); conditions: for % activity: 100 μM
T2 sequence (P41743 1-596): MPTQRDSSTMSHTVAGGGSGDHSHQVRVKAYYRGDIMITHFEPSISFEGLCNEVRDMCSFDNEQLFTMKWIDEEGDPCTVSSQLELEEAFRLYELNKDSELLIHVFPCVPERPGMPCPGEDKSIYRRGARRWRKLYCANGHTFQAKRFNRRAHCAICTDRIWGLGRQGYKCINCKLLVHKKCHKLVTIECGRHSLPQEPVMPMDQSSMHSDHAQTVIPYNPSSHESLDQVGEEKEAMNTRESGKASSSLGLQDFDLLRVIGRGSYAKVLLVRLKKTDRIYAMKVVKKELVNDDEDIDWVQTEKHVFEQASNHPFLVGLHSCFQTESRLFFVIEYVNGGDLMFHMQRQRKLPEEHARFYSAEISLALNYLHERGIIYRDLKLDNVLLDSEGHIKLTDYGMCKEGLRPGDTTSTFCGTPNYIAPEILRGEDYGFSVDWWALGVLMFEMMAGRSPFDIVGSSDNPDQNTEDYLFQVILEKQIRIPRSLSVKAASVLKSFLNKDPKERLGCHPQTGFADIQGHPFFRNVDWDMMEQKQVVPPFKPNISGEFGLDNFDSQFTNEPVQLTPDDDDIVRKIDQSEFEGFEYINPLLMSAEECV

CDK6/cyclinD3(h) = CDK6/cyclinD3(h) (Homo sapiens, UniProt Q00534); conditions: 100 μM
Chain of CDK6/cyclinD3(h) (Q00534 whole entry): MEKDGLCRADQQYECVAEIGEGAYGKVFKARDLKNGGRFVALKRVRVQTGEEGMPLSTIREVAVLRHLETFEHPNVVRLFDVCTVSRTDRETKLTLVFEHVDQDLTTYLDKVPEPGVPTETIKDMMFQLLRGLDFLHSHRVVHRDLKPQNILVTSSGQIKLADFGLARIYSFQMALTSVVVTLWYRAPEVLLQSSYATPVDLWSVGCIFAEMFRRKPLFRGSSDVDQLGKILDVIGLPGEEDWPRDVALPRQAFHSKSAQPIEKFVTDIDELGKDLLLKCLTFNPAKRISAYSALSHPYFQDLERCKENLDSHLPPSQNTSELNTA
Chain of CDK6/cyclinD3(h) (P30281 whole entry partner): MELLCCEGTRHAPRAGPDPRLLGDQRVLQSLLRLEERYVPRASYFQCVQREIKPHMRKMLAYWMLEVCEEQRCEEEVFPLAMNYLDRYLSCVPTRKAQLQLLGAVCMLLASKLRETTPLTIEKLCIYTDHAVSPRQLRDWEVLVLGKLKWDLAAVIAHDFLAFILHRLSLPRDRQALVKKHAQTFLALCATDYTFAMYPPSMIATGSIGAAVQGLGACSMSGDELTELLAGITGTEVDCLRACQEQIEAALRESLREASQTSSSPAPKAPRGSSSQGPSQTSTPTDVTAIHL

EGFR(h) = EGFR(h) (Homo sapiens, UniProt P00533); conditions: 100 μM
Fyn(h) = Fyn(h) (Homo sapiens, UniProt P06241); conditions: 100 μM
Chain of Fyn(h) (P06241 whole entry): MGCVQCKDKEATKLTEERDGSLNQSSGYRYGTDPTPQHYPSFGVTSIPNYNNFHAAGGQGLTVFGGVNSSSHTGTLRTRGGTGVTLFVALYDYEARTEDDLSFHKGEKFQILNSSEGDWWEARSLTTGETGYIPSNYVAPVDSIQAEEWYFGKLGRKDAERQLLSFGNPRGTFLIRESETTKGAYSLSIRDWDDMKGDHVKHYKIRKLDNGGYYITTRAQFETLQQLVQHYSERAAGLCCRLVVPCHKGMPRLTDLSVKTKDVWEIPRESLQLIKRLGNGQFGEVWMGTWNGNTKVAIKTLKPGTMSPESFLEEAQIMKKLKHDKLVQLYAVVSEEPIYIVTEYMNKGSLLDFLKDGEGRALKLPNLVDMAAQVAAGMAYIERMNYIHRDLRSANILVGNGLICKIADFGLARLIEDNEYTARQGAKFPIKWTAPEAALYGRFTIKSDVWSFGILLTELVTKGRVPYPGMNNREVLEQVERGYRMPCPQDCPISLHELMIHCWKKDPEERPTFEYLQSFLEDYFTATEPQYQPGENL

Met(M1268T)(h) = Met(M1268T)(h) (Homo sapiens, UniProt P08581, M1250T); conditions: 100 μM
MSK2(h) = MSK2(h) (Homo sapiens, UniProt O75676); conditions: 100 μM
mTOR/FKBP12(h) = mTOR/FKBP12(h) (Homo sapiens, UniProt P42345); conditions: 100 μM
Chain of mTOR/FKBP12(h) (P42345 1362-2549 limits assumed): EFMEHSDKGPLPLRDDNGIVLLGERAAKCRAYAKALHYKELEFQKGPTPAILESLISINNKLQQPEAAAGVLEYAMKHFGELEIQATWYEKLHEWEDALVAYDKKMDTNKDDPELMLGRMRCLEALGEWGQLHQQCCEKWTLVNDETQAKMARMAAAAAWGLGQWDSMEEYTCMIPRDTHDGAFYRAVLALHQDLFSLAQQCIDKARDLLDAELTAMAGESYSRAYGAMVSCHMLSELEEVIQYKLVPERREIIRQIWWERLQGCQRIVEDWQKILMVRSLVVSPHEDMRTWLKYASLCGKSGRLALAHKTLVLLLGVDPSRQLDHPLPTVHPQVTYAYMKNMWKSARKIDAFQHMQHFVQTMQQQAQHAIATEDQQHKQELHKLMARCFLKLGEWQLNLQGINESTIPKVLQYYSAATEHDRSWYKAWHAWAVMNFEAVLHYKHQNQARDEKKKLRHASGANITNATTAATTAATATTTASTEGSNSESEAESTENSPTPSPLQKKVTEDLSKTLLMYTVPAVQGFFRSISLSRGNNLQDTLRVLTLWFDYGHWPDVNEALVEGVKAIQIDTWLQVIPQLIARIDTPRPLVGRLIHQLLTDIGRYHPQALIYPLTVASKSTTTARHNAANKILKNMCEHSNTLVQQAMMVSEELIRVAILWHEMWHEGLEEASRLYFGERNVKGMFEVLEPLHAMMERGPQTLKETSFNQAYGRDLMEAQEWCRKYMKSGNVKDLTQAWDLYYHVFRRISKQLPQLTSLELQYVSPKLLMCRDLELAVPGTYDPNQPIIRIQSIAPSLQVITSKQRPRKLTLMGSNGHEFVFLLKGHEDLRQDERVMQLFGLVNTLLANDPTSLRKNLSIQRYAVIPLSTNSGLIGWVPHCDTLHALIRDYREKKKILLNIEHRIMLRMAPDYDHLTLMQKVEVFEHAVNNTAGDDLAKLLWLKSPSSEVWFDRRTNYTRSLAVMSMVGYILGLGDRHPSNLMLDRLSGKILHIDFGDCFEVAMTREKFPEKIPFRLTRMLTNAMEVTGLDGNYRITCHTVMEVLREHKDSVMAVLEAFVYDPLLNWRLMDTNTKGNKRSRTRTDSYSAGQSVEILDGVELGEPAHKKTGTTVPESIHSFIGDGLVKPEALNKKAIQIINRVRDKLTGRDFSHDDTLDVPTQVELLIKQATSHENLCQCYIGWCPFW

Pim-1(h) = Pim-1(h) (Homo sapiens, UniProt P11309); conditions: 100 μM
PKCβII(h) = PKCβII(h) (Homo sapiens, UniProt P05771); conditions: 100 μM
TSSK2(h) = target: T3, TSSK2(h) (Homo sapiens, UniProt Q96PF2); conditions: 100 μM
T3 sequence (Q96PF2 1-358): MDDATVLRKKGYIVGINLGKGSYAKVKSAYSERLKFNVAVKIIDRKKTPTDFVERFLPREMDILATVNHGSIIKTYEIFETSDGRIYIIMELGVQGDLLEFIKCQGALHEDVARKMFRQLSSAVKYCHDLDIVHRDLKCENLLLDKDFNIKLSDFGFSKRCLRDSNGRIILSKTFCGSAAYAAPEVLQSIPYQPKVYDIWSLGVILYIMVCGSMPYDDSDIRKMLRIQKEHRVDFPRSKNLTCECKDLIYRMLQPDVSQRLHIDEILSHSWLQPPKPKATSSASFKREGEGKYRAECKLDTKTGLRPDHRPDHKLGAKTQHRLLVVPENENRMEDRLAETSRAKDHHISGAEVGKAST

H-YARAAARQARAKALARQLGVAA-OH [MMI-0100]
activity at 100 µM (BTK(R28H)(h)): 91% | activity at 100 µM (DMPK(h)): 60% | activity at 100 µM (FGFR3(h)): 73% | activity at 100 µM (Flt4(h)): 135% | activity at 100 µM (IR(h), activated): 127% | activity at 100 µM (MAPKAP-K3(h)): 27% | activity at 100 µM (PKCτ(h)): 110%

YARAAARQARAKALNRQLGVA (Mammalian) [MMI-0200]
% activity (CDK6/cyclinD3(h)): 100% | % activity (DMPK(h)): 66% | % activity (EGFR(h)): 83% | % activity (FGFR3(h)): 208% | % activity (Fyn(h)): 75% | % activity (MAPKAP-K3(h)): 39% | % activity (Met(M1268T)(h)): 143% | % activity (MSK2(h)): 88% | % activity (mTOR/FKBP12(h)): 118% | % activity (Pim-1(h)): 18% | % activity (PKCβII(h)): 100% | % activity (PKCτ(h)): 97% | % activity (TSSK2(h)): 91%

HRRIKAWLKKIKALARQLGVAA (Mammalian) [MMI-0500]
% activity (BTK(R28H)(h); 100 μM): 10% | % activity (CDK6/cyclinD3(h)): 23% | % activity (DMPK(h)): 12% | % activity (EGFR(h)): -1% | % activity (FGFR3(h)): 10% | % activity (Flt4(h); 100 μM): 73% | % activity (Fyn(h)): 83% | % activity (IR(h), activated; 100 μM): 90% | % activity (MAPKAP-K3(h)): 9% | % activity (Met(M1268T)(h)): 239% | % activity (MSK2(h)): 14% | % activity (mTOR/FKBP12(h)): 140% | % activity (Pim-1(h)): 0% | % activity (PKCβII(h)): 3% | % activity (PKCτ(h)): 7% | % activity (TSSK2(h)): 92%
